Data as given in patent US5928915A, “CHO cell sialidase by recombinant DNA technology” (Genentech, Inc., priority 1997, dated 1999).

Target: T1, CHO cell sialidase (Cricetulus griseus, UniProt Q64393)
T1 construct: The sialidase described was purified from the cell culture fluid of a single production cell line (CHO 14.16); endogenous in cells; host or cells: CHO 14.16 cells (purified from the cell culture fluid)
Assay: Sialidase kinetic constants with soluble sialylglycoconjugate substrates
Type: biochemical, Chinese hamster
Method: Fluorescent sialidase assays: Standard assay conditions for monitoring the enzyme activity during purification using the fluorescent substrate analog are: 1.3 mM 4-MUNeu5Ac, 50 mM phosphate buffer, pH 6.8, 0.3 mg bovine serum albumin and varying amounts of enzyme in a total volume of 30 μl. After addition of enzyme the samples are incubated at 37° C. in a shaking water bath for 5 minutes. The reaction is terminated and the fluorescence of the liberated umbelliferone is enhanced by the addition of 2 ml of 80 mM glycine-carbonate buffer, pH 9.7. Quantification of the product is made by measuring the fluorescence of the samples with excitation at 365 nm and emission at 450 nm using a standard of 4-methyl umbelliferone. A unit of enzyme activity is defined as a μmol/min of sialic acid liberated.
Sialidase assays with natural substrates: When natural substrates are tested with the purified enzyme, the amount of released sialic acid is measured using the thiobarbituric acid assay as modified by Uchida [Uchida et al. J. Biochem., 82:1425 (1977)] using sialic acid as standard. […] All samples are cleared by centrifugation (1,000×G, 10 min) prior to determining the absorbance at 540 nm.
Enzyme kinetic parameters: Assay conditions (time and added enzyme) are modified for each substrate so that initial reaction rates are measured. […]

T1 sequence (Q64393 whole entry): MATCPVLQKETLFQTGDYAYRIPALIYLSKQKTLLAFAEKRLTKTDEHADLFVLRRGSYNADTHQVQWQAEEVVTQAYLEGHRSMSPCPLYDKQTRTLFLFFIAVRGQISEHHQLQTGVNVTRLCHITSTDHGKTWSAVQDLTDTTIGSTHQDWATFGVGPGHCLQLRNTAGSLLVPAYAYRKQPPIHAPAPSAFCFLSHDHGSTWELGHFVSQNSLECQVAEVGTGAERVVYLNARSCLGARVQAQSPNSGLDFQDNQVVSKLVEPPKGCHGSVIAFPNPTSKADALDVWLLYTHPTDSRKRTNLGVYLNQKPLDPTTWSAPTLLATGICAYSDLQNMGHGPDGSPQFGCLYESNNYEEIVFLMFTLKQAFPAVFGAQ

B1: rDeoxyribonuclease 1: encoded by a human-derived nucleotide sequence, was expressed in Chinese hamster ovary cells (protein, UniProt P24855 23-282, looked up)
Deoxyribonuclease-1: LKIAAFNIQTFGETKMSNATLVSYIVQILSRYDIALVQEVRDSHLTAVGKLLDNLNQDAPDTYHYVVSEPLGRNSYKERYLFVYRPDQVSAVDSYYYDDGCEPCGNDTFNREPAIVRFFSRFTEVREFAIVPLHAAPGDAVAEIDALYDVYLDVQEKWGLEDVMLMGDFNAGCSYVRPSQWSSIRLWTSPTFQWLIPDSADTTATPTHCAYDRIVVAGMLLRGAVVPDSALPFNFQAAYGLSDQLAQAISDHYPVEVMLK
In the case of B1, the Vmax (apparent, standard assay conditions, average of duplicates, relative error about 10%) is reported as 12 µmol/min/mg and the “Km values compared (in words)” value (transferrin versus deoxyribonuclease I) is reported as “nearly identical”.
